Results as given in the nanobody polyreactivity screen of Harvey et al. (2022).

assay: yeast display, Sf9 membrane polyspecificity reagent, FACS + sequencing; frameworks hold sequencing errors
Outline: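 A nanobody's polyreactivity label depends on the gate it was sorted from. Yeast display cells were stained with 10% biotinylated, detergent-solubilized Sf9 membrane reagent for 1 hour at 4 °C, enriched on streptavidin microbeads and sorted by FACS. The low and high (top ~1%) gates were set on anti-HA fluorescence for expression and streptavidin fluorescence for reagent binding.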

| Sequence | polyreactivity (PSR sort gate) |
| --- | --- |
| QVQLVESGGGLVQAGGSLRLICAASGSYAMGWYRQAPGKERELVASIDGPGGSTYYADSVKGRFTISRDNAKNTVYLQMNSLKPEDTAVYYCEDWAPGLYDYWGQGTQVTVSS | low polyreactivity |
| QVQLVESGGGLVQAGGSLRLICAASGYIFYAYALGWYRQAPGKERELVAAITDNGVSTFYADSVKGRFTISRDNAKNTVYLHMKSLKPEETAVYYCATSSTHSRGDEYWGQGTQVTVSS | low polyreactivity |
| QVQLVESGGGLVQAGGSLRLICAASRFYTMGWYRQATVKERELVAAISWSGGDTYYADSVKGRFTISRDNAKNTVYLQMNSLKPEDTAVYYCAKKTIGSYVHEPFYYWGQGTQVTVSS | low polyreactivity |
| QVQLVESGGGLVQAGGSLRLICAASRSIFEINAMGWYSQAPGKERELVADNRRGDSTNYADSVNGRFTISRDNAKNTVYLQMNSLKPEVTAVYYCAARWRRSIYGVYPQRPYDYWGQGTQVTVSS | high polyreactivity |
| QVQLVESGGGLVQAGGSLRLICAASVTTFPYYAMGWYRQAPGKERELVAAITSSGGSTYYADSVKGRFTISRDNAKNTVYLQMNSLIPEDTAVYYCAKGYGPYRQMNYWGQGTQVTVSS | low polyreactivity |
| QVQLVESGGGLVQAGGSLRLICAATGITFITYVMGWYSQAPGKERELVAAISLRGGRTSYADSVKGRFTISRDNAKNTVYLQMNSLKPEDTAVYYCAARGGAYQNAYEYDYWGPGTQVTVSS | high polyreactivity |
| QVQLVESGGGLVQAGGSLRLICAAYGGIFISYAMGWYRQAPWKERELVAAINYSGGSTNYADSVKGRFTLSRDNAKNTVYLQMNSLKPEDTAVYYCAARSTARYGYWGQGTQVTVSS | low polyreactivity |
| QVQLVESGGGLVQAGGSLRLICADSGFILPRNAMGWYRQAPGKERELVAAIRSSGGTTYYADSVKGRFTISRDIAKNTVYLQMNSLKPEDTAVYYCAAVTTSKFNYWGQGTQVTVSS | low polyreactivity |
| QVQLVESGGGLVQAGGSLRLICADYGITFRVNAMGWYRQAPGKERELVASISRSGGSTYYADSVKGRFTISRDNAKNTVYLQMNSLKPEDTAVYYCAAAQKVLFYGRWFDYWGQCTQVTVSS | low polyreactivity |
| QVQLVESGGGLVQAGGSLRLICAPSGRIFEGYAMGWYRPATRKERELVAAISRGGGSTYYADSVKGRFTISRDNAKNTVYLQMNSLIPEDTAVYYCAKVPLTYSRSGYEYDYWGQGTQVSVSS | low polyreactivity |
| QVQLVESGGGLVQAGGSLRLICAPSGRITLRYAIGWYRQAPRKERDFVAAITVSGGSTYYADSVKGRFTISRDNAKNTVYLMMNRLKPEDTAVYYCAVRQKTQYGSKHDYWGQGTQVTVSS | high polyreactivity |
| QVQLVESGGGLVQAGGSLRLICAPSGSIFTYYAMGRYRQAPGKEKELVAAISQSGGTTYYADSVKGRFTISRDNAKNTVYLQMNSLKPEDTAVSYCAARAPSSFDTQYYYWGQGTQVTVSS | low polyreactivity |
| QVQLVESGGGLVQAGGSLRLICAPSGSTNRYYAIGWSRQAPRKEMELVAPISWRGGSTYYADSVKGRFRISRDNANNTVYLEMNSLKPEDTAVYYCNAAYSYAVRDPIDYGYWGQGTQVTVSS | high polyreactivity |
| QVQLVESGGGLVQAGGSLRLICDASGIYYRNAMGWYRQAPGKEREMVAAISWSGGSTYYADSVKGRFTISRDNAKNTVYLQMNSLNPEDTAVYYCAAVGGRYPSNVLGYYYWGQGTQVTVSS | high polyreactivity |
| QVQLVESGGGLVQAGGSLRLICDASGRIFQFYAMGWYRQAPGKERELVAVITRRGGSTHYADSVKGRFTISRDNAKNTVYLQMNSLNPEDTAVYYCAAEWQTQGYEYWGQGTQVTVSS | high polyreactivity |
| QVQLVESGGGLVQAGGSLRLICDASGSIFRYYAMGWYRQAPGKERELVARISWRAGSTYADSVKGRFTISRDYAKNTVYLQINSQKPEDTAVYYCNADAHKDSWVGTSEYEYWGQGTQVTVSS | high polyreactivity |
| QVQLVESGGGLVQAGGSLRLLCAASGFTFGFNAMGWYRQAPGKERELVAAISRGGSTNYADSVKGLFTISRDNAKNTVYLQMNSLKPEDTAVYYCAADVITYVFRFYYWGQGTQVTVSS | low polyreactivity |
| QVQLVESGGGLVQAGGSLRLRCAASAGTFGIYSMGWYRQAPGKEREFVAAISGRGGTTYDADSVKGRFTISRDNAKYTVYLQMNSLKPVDTAVYYWATDSVNVGSNVGDKHDYWGQGTQVTVSS | low polyreactivity |
| QVQLVESGGGLVQAGGSLRLRCAASGFIFCSYAMGWYRQAPGKERELVAAINTSGDSTYYADSVKGRFTISRDNAKNTVYLQINSLKPEDTAVYYCAAESSPDGYFLSDYWGQGTQVTVSS | low polyreactivity |
| QVQLVESGGGLVQAGGSLRLRCAASGFIFGYYAMGWYRQAPGKERELVAAITTSGGSTYYADSVKARFTISRDNAKNTVYLQMNSLKPEDTAVYYCNKPGNYVWRRSWDFDYWGQGTQVTVSS | high polyreactivity |
| QVQLVESGGGLVQAGGSLRLRCAASGFTFAPNAMGWYRQAPGKERELVAAITWSGGSTYYADSVKGRFTISRDNAKNTVYVQMNSLKPEDTAVYYCNAVSRSTVTGQHDFWGQGTQVTVSS | high polyreactivity |

| Sequence | polyreactivity (PSR sort gate) |
| --- | --- |
| QVQLVESGGGLVQAGGSLRLRCAASGGIFGFYAMGWYRQAPGKERELVAAISWGGGSTYYADSVKGRFTIARDNAKNTVFVQMNSLKPEDTAVYYCAADPALTKEYGYWGQGTQVTVSS | low polyreactivity |
| QVQLVESGGGLVQAGGSLRLRCAASGGIFTNNAKGWYRQAPGKERELVAAITGSGASTYYADSVKARFTISRDNAKNSVYLHLNSLKPEDTAVYYCNTDSPYGWEGEFDYWGLGTQVTVSS | high polyreactivity |
| QVQLVESGGGLVQAGGSLRLRCAASGGTFGVNAMGWYRQAPGKERELVAAISSSGGRTYYADSVKGRFTISRDNAKNTVYLQMNSLKPEDTAVYYCAARNYFWGQGTQVTVSS | low polyreactivity |
| QVQLVESGGGLVQAGGSLRLRCAASGIIFEYYAMGWYRQAPGKERELVAAITWNGGRTYYADSVKGRFTISRDNAKNTVYLQINSLKPEDTAVYYCAALTYYRDYWGLGTQVTVSS | high polyreactivity |
| QVQLVESGGGLVQAGGSLRLRCAASGIIFRGYAMGWYRPAPGKERELVAGITSGGDTNYADSVKGRFTISRDNAKNTVYVQMNSMNPEDTEGYYCATSDRRYRGRHYPFYKFDYWGQGPQVTVSS | low polyreactivity |
| QVQLVESGGGLVQAGGSLRLRCAASGIIFYRYAMGWYRQAPGKERELVAAINTSGGRTYYADSVKGRFTISRDNAKNTVYLQMNSLKPEDTAVYYCAAYYSPVGFQYDYWGQGTQVTVSS | high polyreactivity |
| QVQLVESGGGLVQAGGSLRLRCAASGITFPNYAMGWYRQAPGKERELVAAISSGGSTTYADSVKGRFTISRDNAKNTVYLQMNSLKPEDTAVYYCNADISAHYVIGVPTGYYWGQGTQVTVSS | low polyreactivity |
| QVQLVESGGGLVQAGGSLRLRCAASGLIFARNAMGWYRHAPGKERELVAAISRRGGSTYYADSVKGRFTISRDNAKNTVYLQMNSLKPEDTAVYYCAADTPYWQSSKYDYWGQGTQVTVSS | high polyreactivity |
| QVQLVESGGGLVQAGGSLRLRCAASGLIFYVYAMGWYRQAPGKERELVAAISYRGGSTYADSVKGRFTISRDNAKNTVYLQMNSLKPEDTAVYYCAAQRWYVYGLKYHYGYWGQGTQVTVSS | high polyreactivity |
| QVQLVESGGGLVQAGGSLRLRCAASGNTFAYYAMGWYRQAPGKERELVASITGSGTSTYYADSVKGRFTISRDNEKNTVYLQMNSLKPEDTAVYYCAKRYYYKWFGYWGQGTQVTVSS | high polyreactivity |
| QVQLVESGGGLVQAGGSLRLRCAASGNTFRVYPMGWYRQAPGKESELVAAITWSGSRTYYADSVKGRFTISRDNAKNTVYFQINSLKPEDTAVYYCAARFVRAAYNYWGLGTQVTVSS | high polyreactivity |
| QVQLVESGGGLVQAGGSLRLRCAASGRIFNGYGMGWYRQAPGKERELVAAITWSGGGTYYADTVKGRFTISRDNAKNTVYLQRNSLKPEDTAVYYCAAYSSSYPDYDSWGQGTQVTVSS | low polyreactivity |
| QVQLVESGGGLVQAGGSLRLRCAASGRIFRPYTMGWYRQAPGKERELVAGITSSGGGTYYADSVKGRFTISRDNAKNTVYLHMNSLKPEDSAVYYCNRRGWSRTHQYDYWGQGTQVTVSS | high polyreactivity |
| QVQLVESGGGLVQAGGSLRLRCAASGRNFGDNRMGWYRQAPGKERELVTYAYSVKGRFTISRDNAKNTVYLQMNSLKPEDTSVYYCNTDPQRFSGLDENYWGQGTQVTVSS | low polyreactivity |
| QVQLVESGGGLVQAGGSLRLRCAASGRTFARYAMGWYRQAPGKERELVAAISWSGGSTYYADSVKARFTISRDNAKNTVYLQMNSLKPVDTAVYYCAARRPTSPRRYESWGQGTQVTVSS | high polyreactivity |
| QVQLVESGGGLVQAGGSLRLRCAASGRTFELYAMGWYRQAPGKERALVAAITASGGTTYYADSVKGRFTISRDNAKNTVYLQMNSLKPEDTAVYYCAAEYSYYPFTDYDYWGQGTQVSVSS | high polyreactivity |
| QVQLVESGGGLVQAGGSLRLRCAASGRTFGQNAMGLYRQAPGKEREFVAAISSSGGSTYYADSVKGRFTISRDNAKNTVYLQMNSLKPEDTAVYYCNARQYYYRSGAYASRYLYNYWGQGTQVTVSS | high polyreactivity |
| QVQLVESGGGLVQAGGSLRLRCAASGRTFQYNAMGWYRQAPGKESELVAANTSNGGSTYYADSVKGRFTISRDNAKNTVYLQMNSLNPEDTAVYYCAKAYRYVDRGYRLLRYGFWGQGTQVTVSS | high polyreactivity |
| QVQLVESGGGLVQAGGSLRLRCAASGRTFRYYAMGWYRQAPGKEREVVAAITRSGGSTYYADSVKGRFTISRDNAKNTVYLQMNSLKPEDTAVYYCAASRFTSYGIDYDYCGQGTQVTVSS | high polyreactivity |
| QVQLVESGGGLVQAGGSLRLRCAASGRTFYRYAMGWYRQAPGKERELVASINRGGSTNYADSVKGRFTISRDNAKNTVYLQMNSLKPEDTAVYYCACYCYCYWGQGTQVTVSS | low polyreactivity |
